The experiment deals with TAP-tagged human presenilin 1 (human) (UniProt P49768). Briefly: SEC-MALS; TAP-purified PS1 complex on Superdex S-200 10/300 in Tris buffer with 0.1% digitonin; protein and detergent masses by conjugate analysis; complex co-purified from cells. In general terms: In gel filtration, larger molecules generally elute earlier.

With “anterior pharynx 1 (aph1) (from UniProt Q96BI3 1-265) (natural protein)”, the stoichiometry N (usually a count of units in the complex or per binding partner) came to 1.

These data come from PMC3887256.
